The target of this experiment is SM5−1抗原(BIAcore測定に用いた形は記載なし). Description: BIAcore (Pharmacia), kinetic analysis after Karlsson et al. For orientation: SPR reads the build-up and loss of mass on a sensor chip optically.

B1: 抗ヒトSM5−1ヒト化抗体(ReSM5−1) (antibody, V domains shown)
VH: QVQLVQSGGGVVQPGRSLRLSCKASGYTFTSYVMHWVRQAPGKGLEWIGYIVPYNDGTKYNEKFKGRFTISSDKSKSTAFLQMDSLRPEDTAVYYCARGSRYDWYLDYWGQGTPVTVSS
VL: NIMMTQSPSSLSASVGDRVTITCKSSQSVLYSSNQKNYLAWYQQTPGKAPKLLIYWASTRESGVPSRFSGSGSGTDYTFTISSLQPEDIATYYCHQYFSSYTFGQGTKLQITR
By Kd is commonly meant the constant that tells how readily two partners part at equilibrium. Lower therefore signals a tighter complex. With B1, the Kd was 9.31 nM.

Values taken from patent JP2007535905A.
